Consider four molecules from publication doi:10.1101/2021.08.24.457465.

Read-outs that look alike come from different tables or passages of the source.

Series [1] has as its target T1, ToPif1 (wild type) (Thermus oshimai, UniProt K7RJ88 64-507).
T1 sequence: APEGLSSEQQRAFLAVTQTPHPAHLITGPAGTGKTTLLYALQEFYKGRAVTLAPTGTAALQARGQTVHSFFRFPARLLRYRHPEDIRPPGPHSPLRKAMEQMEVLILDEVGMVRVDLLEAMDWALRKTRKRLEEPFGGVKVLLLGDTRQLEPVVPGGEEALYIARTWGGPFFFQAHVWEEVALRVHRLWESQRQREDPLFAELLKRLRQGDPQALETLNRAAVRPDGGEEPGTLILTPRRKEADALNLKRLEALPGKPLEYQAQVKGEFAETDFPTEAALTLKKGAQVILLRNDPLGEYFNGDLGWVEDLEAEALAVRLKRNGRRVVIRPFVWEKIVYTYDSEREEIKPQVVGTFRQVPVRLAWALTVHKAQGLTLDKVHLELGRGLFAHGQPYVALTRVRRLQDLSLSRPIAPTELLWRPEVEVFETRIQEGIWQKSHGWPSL
Put plainly: fluorescence anisotropy. (Fluorescence polarisation rises when a labelled molecule tumbles more slowly, as on binding a larger partner.)

For series [2], the target named is T1, ToPif1 (wild type). Put plainly: fluorescence anisotropy. The source holds these as a separate data set.
The target of series [3] is T1, ToPif1 (wild type). The series can be described thus: fluorescence anisotropy. The source holds these as a separate data set.
Series [4] addresses T2, ToPif1 (wild type), crystal (Thermus oshimai, UniProt K7RJ88 64-507).
T2 sequence: T1 sequence
The series can be described thus: X-ray crystallography.

Series [5] addresses T1, ToPif1 (wild type). The series can be described thus: fluorescence anisotropy. The source holds these as a separate data set.

As a reminder, the Kd is the concentration at which binding is half-saturated. On to TTTTTTTTTTTT (ssDNA) [T12], for which the Kd with ToPif1 (wild type) [1] is around 29.1 nM; with ToPif1 (wild type) [2] it was 29.1 ± 0.53 nM; in the series with ToPif1 (wild type) [3] it was 26.5 ± 0.71 nM.
For TTTTTTGGGTGGGTGGGTGGGTTTTTTTT (structured_DNA) [G4T6/T8], the binding result in series [4] is reported as “binds”.
In the series with ToPif1 (wild type) [1], GGGTTAGGGTTAGGGTTAGGG (structured_DNA) [G4Tel] came in with a Kd of around 29.6 nM.
For AGGGTGGGTGGGTGGG (structured_DNA) [G4CEB], the Kd in the series with ToPif1 (wild type) [1] is around 23.3 nM; in the series with ToPif1 (wild type) [2], 30.3 ± 1.17 nM; in the series with ToPif1 (wild type) [5], 30.9 ± 2.32 nM.
